From US7001748B2, “Methods of making polyketides using hybrid polyketide synthases” (The Board of Trustees of the Leland Stanford Junior …, priority 1999, dated 2006)

What was measured:
[1] = Kinetic constants kcat and KM for converting diketide to triketide (cell-free system); format: biochemical
Protocol: (§1) A cell-free system, tested for the ability to convert the cysteamine thioester of 2S,3R-2-methyl-3-hydroxypentanoic acid (compound 2 in FIG. 2), consisted of 0.5-10 mM concentration of the thioester, 2.5 mM ^14C-labeled methylmalonyl CoA and 100 pmoles of purified protein prepared in Example 1 in a 100 μl reaction. In some cases, 1 mM of NADPH was added; this was done in assay mixtures containing (M2+TE), (M5+TE) and (M6+TE) proteins. The protein was, in each case, a single module of the DEBS PKS fused to the thioesterase (TE) termination region of module 6.
(§2) The reaction mixtures were quenched and extracted by ethyl acetate and separated by thin-layer chromatography (TLC) to discern the formation of the triketide ketolactone 3 and triketide lactone 4 (both shown in FIG. 2) after 30 minutes.
The various constructs which are successful in converting diketide to triketide were then evaluated for the kinetic constants kcat and KM. […] This is evidently due to the absence of beta-carbonyl modifying enzymes in module 3 as verified by the fact that removal of NADPH, (which is required for the activity of such modules) from the reaction mixture of (N-ERL-M6+TE) also results in a lowering of the kcat.

[2] = Cell-free synthesis of triketides from diketide thioester by single module constructs; format: biochemical; conditions: purified protein, after 30 minutes
Protocol: as §1, §2

[3] = tested on: (5)M2+TE, (5)M5+TE, and (5)M6+TE; conditions: Wu et al. 2000; cited from earlier work

Row | Compound | Km ([1]; diketide to triketide) | kcat × 100 ([1]; diketide to triketide) | Triketide Formed [2] | Triketide Formed ([2]; listed as (M5+TE)) | incorporation of NAC thioester (qualitative) [3] | Triketide Formed ([2]; listed as (N-ERL-M2+TE)) | Km ([1]; (− NADPH)) | kcat × 100 ([1]; (− NADPH)) | Triketide Formed ([2]; listed as (N-ERL-M6+TE))
1 | M5 + TE: single module 5 of DEBS fused to the thioesterase (TE) domain | 4.7 ± 0.4 mM | 7.5 ± 0.7 min^−1 | Yes | expected triketides were formed | – | – | – | – | –
2 | CCC(O)C(C)C(=O)SCCNC(C)=O (stereo not shown) [2c] | – | – | – | – | no turnover | – | – | – | –
3 | CCC(O)C(C)C(=O)SCCNC(C)=O (stereo not shown) [2d] | – | – | – | – | no turnover | – | – | – | –
4 | ERL − M2 + TE: module 2+TE carrying the upstream 39 amino acids (N-ERL) from module 5 | 4.6 ± 0.4 mM | 8 ± 0.6 min^−1 | Yes | – | – | able to produce the triketide product | – | – | –
5 | ERL − M6 + TE: module 6+TE carrying the upstream 39 amino acids (N-ERL) from module 5 | 4.3 ± 0.4 mM | 9.5 ± 0.6 min^−1 | Yes | – | – | – | 4.1 ± 0.4 mM | 4.5 ± 0.7 min^−1 | able to produce the triketide product
